T1: Murine APRIL (mouse, UniProt Q9D777 105-241, limits assumed)
T1 sequence (looked up): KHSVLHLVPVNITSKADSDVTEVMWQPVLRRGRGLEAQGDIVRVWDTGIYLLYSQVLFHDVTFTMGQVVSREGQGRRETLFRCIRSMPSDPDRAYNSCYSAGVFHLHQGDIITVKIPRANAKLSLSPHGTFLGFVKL


How the values were obtained:
human BAFF [1] = molecular target: T2, human BAFF (human, UniProt Q9Y275 82-285, limits assumed); experiment: shotgun scan, phage display
Text: (§1) Phage from each of the libraries described above were subjected to rounds of binding selection against APRIL, BAFF, or anti-tag antibody (3C8:2F4 Genentech, Inc.) immobilized on 96-well Nunc Maxisorp immunoplates (Sidhu, 2001). BSA-coated wells were used to determine non-specific background binding. Phage eluted from each target were propagated in E. coli XL1-Blue in the presence of M13K07 helper phage; amplified phage were used for selection against the same target in the […] round. […] Enrichment was calculated from the ratio of the phage titer eluted from the target-coated wells to the phage titer eluted from the BSA-coated wells. Individual clones from each library and selection target were then grown in a 96-well format in 400 ul of 2YT medium supplemented with carbenicillin and KO7 helper phage. […] Sequences of acceptable quality were translated and aligned. For APRIL-binding, 71, 40, and 54 sequences were analyzed from libraries one, two and three, respectively. For BAFF-binding, 70, 50, and 53 sequences were analyzed for libraries one, two and three, respectively. For the display selection, a minimum of 47 sequences were analyzed for each library. […] F values describe the effect of mutation on target binding, while accounting for differences in display efficiencies, with values >1 representing deleterious mutations and those <1 representing favorable mutations.

Murine APRIL [2] = molecular target: T1, Murine APRIL; experiment: shotgun scan, phage display
Text: as §1

human BAFF [3] = molecular target: T2, human BAFF; experiment: NNS library, phage display;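 also: ligand versus display occurrence-to-degeneracy ratio and higher means enriched by binding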
Method: (§2) This new phage library was subjected to sorting against either BAFF, APRIL or the display target antibody. After 3 rounds of sorting, approximately 48 clones were picked from each selection and the DNA sequences of the phage clones were determined. […] The normalized F′ value corrects for display bias and is calculated as the percent occurrence to percent degeneracy ratio for ligand selection divided by the percent occurrence to percent degeneracy ratio for display efficiency. Percent occurrence is calculated by dividing the number of times a particular amino acid appeared at a particular position by the total number of amino acids sequenced at that position followed by multiplying by 100. Percent degeneracy is calculated by dividing the degeneracy in code for a particular amino acid divided by the total degeneracy possible at that position followed by multiplying by 100 (e.g., if only A, G and I were selected, total degeneracy possible would be 5).

Murine APRIL [4] = molecular target: T1, Murine APRIL; experiment: NNS library, phage display;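 also: ligand versus display occurrence-to-degeneracy ratio and higher means enriched by binding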
Method: as §2

T2 sequence (Q9Y275 82-285 limits assumed): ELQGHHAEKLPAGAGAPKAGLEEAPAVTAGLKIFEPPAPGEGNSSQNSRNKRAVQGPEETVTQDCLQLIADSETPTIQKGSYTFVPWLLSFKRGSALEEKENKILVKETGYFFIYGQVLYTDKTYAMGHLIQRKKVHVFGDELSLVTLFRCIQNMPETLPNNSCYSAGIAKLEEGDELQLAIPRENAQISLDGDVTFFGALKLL

Binder	F (BAFF) (human BAFF [1])	F (APRIL) (Murine APRIL [2])	F' BAFF (human BAFF [3])	F' APRIL (Murine APRIL [4])
SLSCRKEQGKFYAHLLRDCISCASICGQHPKQCAYFCENKLR (receptor, phage library variant, format as m9) [TACI_d2 D80A]	> 42	> 43		
SLSCRKEQGKFRDHLLRDCISCASICGQHPKQCAYFCENKLR (receptor, phage library variant, format as m9) [TACI_d2 Y79R]			0	0
SLSCRKEQGKFYDHLLRDCISCASICGQHPKQCAYVCENKLR (receptor, phage library variant, format as m9) [TACI_d2 F103V]	0.7	0.6		
SLSCRKEQGKFYDHLLADCISCASICGQHPKQCAYFCENKLR (receptor, phage library variant, format as m9) [TACI_d2 R84A]		1.1	3	2
SLSCRKEQGKFYDHLLRACISCASICGQHPKQCAYFCENKLR (receptor, phage library variant, format as m9) [TACI_d2 D85A]	0.8	0.5		
SLSCRKEQGKFWDHLLRDCISCASICGQHPKQCAYFCENKLR (receptor, phage library variant, format as m9) [TACI_d2 Y79W]			4	3
SLSCRKEQGKSYDHLLRDCISCASICGQHPKQCAYFCENKLR (receptor, phage library variant, format as m9) [TACI_d2 F78S]		> 66	0	0
SLSCRKEQGKFHDHLLRDCISCASICGQHPKQCAYFCENKLR (receptor, phage library variant, format as m9) [TACI_d2 Y79H]			0	0
SLSCRKEQGKFYDHLLRDCISCASICAQHPKQCAYFCENKLR (receptor, phage library variant, format as m9) [TACI_d2 G94A]	10	34		
SLSCRKEQGKFGDHLLRDCISCASICGQHPKQCAYFCENKLR (receptor, phage library variant, format as m9) [TACI_d2 Y79G]			0	0
SLSCRKEQGKFFDHLLRDCISCASICGQHPKQCAYFCENKLR (receptor, phage library variant, format as m9) [TACI_d2 Y79F]			5	4
SLSCRKEQGKFPDHLLRDCISCASICGQHPKQCAYFCENKLR (receptor, phage library variant, format as m9) [TACI_d2 Y79P]			3	2
SLSCRKEQGKFYDHLLRDCISCASICGQHPTQCAYFCENKLR (receptor, phage library variant, format as m9) [TACI_d2 K98T]	8.7	6.4		
SLSCRKEQGKFYDHLLRDCTSCASICGQHPKQCAYFCENKLR (receptor, phage library variant, format as m9) [TACI_d2 I87T]	> 22	> 19		
SLSCRKEQGKFADHLLRDCISCASICGQHPKQCAYFCENKLR (receptor, phage library variant, format as m9) [TACI_d2 Y79A]		> 21	0	0
SLSCRAEQGKFYDHLLRDCISCASICGQHPKQCAYFCENKLR (receptor, phage library variant, format as m9) [TACI_d2 K73A]	2	1.6		
SLSCRKEQGKFVDHLLRDCISCASICGQHPKQCAYFCENKLR (receptor, phage library variant, format as m9) [TACI_d2 Y79V]			2	0
SLSCRTEQGKFYDHLLRDCISCASICGQHPKQCAYFCENKLR (receptor, phage library variant, format as m9) [TACI_d2 K73T]	8.9	5		

Binder	F (BAFF) (human BAFF [1])	F (APRIL) (Murine APRIL [2])	F' BAFF (human BAFF [3])	F' APRIL (Murine APRIL [4])
SLSCRKEQGKFYDHLLRDCISCASICGQHPKQCAYFCENTLR (receptor, phage library variant, format as m9) [TACI_d2 K107T]	1.1	1.1		
SLSCRKEQGKFYDHLLRDCISCASICGQHPKQCAYFCENALR (receptor, phage library variant, format as m9) [TACI_d2 K107A]	1.1	0.9		
SLSCRKEQGKFYDHLLRDCISCASACGQHPKQCAYFCENKLR (receptor, phage library variant, format as m9) [TACI_d2 I92A]		11	0	0
SLSCRKEQGKFYDHLLRDCVSCASICGQHPKQCAYFCENKLR (receptor, phage library variant, format as m9) [TACI_d2 I87V]	1.1	1.4		
SLSCRKEQGKFKDHLLRDCISCASICGQHPKQCAYFCENKLR (receptor, phage library variant, format as m9) [TACI_d2 Y79K]			0	0
SLSCRKEQGKFEDHLLRDCISCASICGQHPKQCAYFCENKLR (receptor, phage library variant, format as m9) [TACI_d2 Y79E]			0	8
SLSCRKEQGKFNDHLLRDCISCASICGQHPKQCAYFCENKLR (receptor, phage library variant, format as m9) [TACI_d2 Y79N]			0	0
SLSCRKEQGKFQDHLLRDCISCASICGQHPKQCAYFCENKLR (receptor, phage library variant, format as m9) [TACI_d2 Y79Q]			0	0
SLSCRKEQGKFYDPLLRDCISCASICGQHPKQCAYFCENKLR (receptor, phage library variant, format as m9) [TACI_d2 H81P]	0.8	1.5		
SLSCRKAQGKFYDHLLRDCISCASICGQHPKQCAYFCENKLR (receptor, phage library variant, format as m9) [TACI_d2 E74A]	0.6	0.7		
SLSCRKEQGKFLDHLLRDCISCASICGQHPKQCAYFCENKLR (receptor, phage library variant, format as m9) [TACI_d2 Y79L]			1	0
SLSCRKEQGKFMDHLLRDCISCASICGQHPKQCAYFCENKLR (receptor, phage library variant, format as m9) [TACI_d2 Y79M]			0	0
SLSCRKEQGKFIDHLLRDCISCASICGQHPKQCAYFCENKLR (receptor, phage library variant, format as m9) [TACI_d2 Y79I]			6	4
SLSCRKEQGTFYDHLLRDCISCASICGQHPKQCAYFCENKLR (receptor, phage library variant, format as m9) [TACI_d2 K77T]	0.6	0.7		
SLSCRKEQGKFTDHLLRDCISCASICGQHPKQCAYFCENKLR (receptor, phage library variant, format as m9) [TACI_d2 Y79T]			0	0
SLSCRKEQGKFYDHLLRDCASCASICGQHPKQCAYFCENKLR (receptor, phage library variant, format as m9) [TACI_d2 I87A]	> 30	> 27		
SLSCRKEQGEFYDHLLRDCISCASICGQHPKQCAYFCENKLR (receptor, phage library variant, format as m9) [TACI_d2 K77E]	0.9	1.4		
